As a reminder, the EC50 (read off the curve) is the concentration that produces a half-maximal response. Higher therefore signals weaker potency.

Consider one molecule from patent publication US20240059766A1.

Assay [1] has as its target T1, Tau(pS404) peptide (human).
T1 sequence (peptide, only S404 phosphorylated (pS404)): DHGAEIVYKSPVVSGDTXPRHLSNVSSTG
In words: competition ELISA, TauS404 coated at 1 ug/mL, VY014 titrated; AC04 peptide at 1 µg/mL as competitor in solution. On the technique in general: An ELISA detects its analyte on a solid surface through an enzyme-linked reagent.

In assay [2] the target is T1, Tau(pS404) peptide (human). In words: direct ELISA, TauS404 coated at 1 ug/mL, antibody titrated.
Assay [3] addresses T1, Tau(pS404) peptide (human). Kind of assay: competition ELISA, TauS404 coated at 1 ug/mL, VY014 titrated; peptide 12 at 1 µg/mL as competitor in solution.

B1: VY014 (antibody, V domains shown)
VH: EVQLVESGGGLVQPGGSLRLSCAASGFTFNNYDMHWVRQAAGKGLEWVSTIGAAGDTYYPGSVKGRFIISRENAKNSLYLQMNSLRAGDTAVYYCARAGETLEGATIGYYYGMDVWGQGTTVTVSS
VL: DILMTQSPLSLPVTPGEPASISCRSSQSLLHSNGYNYLDWYLQKPGQSPQLLIYLGSNRASGVPDRFSGSGSGTDFTLKFSRVEAEDVGLYYCMQALQIPLTFGGGTKVEIK
As to B1, the EC50 (read off the curve) in assay [1] is 0.08 nM; in assay [2], 0.06 nM; in assay [3] it was 0.2 nM.
